Experimental data as given in patent publication US20210363214A1 (University of Washington, published 2021).

Key:
[1] = target: the molecule itself; experiment: AUC in detergent solution (C8E5); self-association to homodimer
Procedure: The dimer design with the shortest hydrophobic span (15 residues, TMHC2_S) was poorly behaved in both E. coli and mammalian cells, but the dimer designs with longer spans TMHC2, TMHC2_E and TMHC2_L localized to the cell membrane when expressed in HEK293T cells (data not shown) and in E. coli. The designed proteins were purified by extracting the E. coli membrane fraction with detergent, followed by nickel-NTA chromatography and size exclusion chromatography (SEC) with a yield of ˜2 mg/L (FIG. 6A-B). […] For the single chain scTMHC2 the major species in SEC was the monomer with a small side peak that was readily removed by purification (FIG. 6B).
Analytical ultracentrifugation (sedimentation velocity and sedimentation equilibrium) experiments were carried out using a Beckman XL-I analytical ultracentrifuge (Beckman Coulter) equipped with an eight-cell An-50 Ti rotor. The proteins were run in 20 mM sodium phosphate, pH 7.0, containing 200 mM NaCl supplemented with 0.5% C8E5, no density matching was necessary and the solvent density was calculated as 1.0075 g mL⁻¹. The partial specific volume of the protein was calculated by the program Sednterp™ (37). For sedimentation velocity, absorbance at 230 nm versus radial location was recorded during centrifugation at 50,000 rpm at 20° C. […] The data of sedimentation velocity and sedimentation equilibrium were analyzed using Sedfit™ and Sedphat™.

[2] = target: the molecule itself; experiment: AUC in detergent solution; self-association to homotrimer
Description: We used a similar approach to design a transmembrane trimer with six membrane spanning helices (TMHC3) based on the 5L6HC3_1 scaffold (PDB ID: 5IZS). Guided by the results with the C2 designs, we chose a hydrophobic span of ˜30 Å (20 residues) (FIG. 4A). The design was expressed in E. coli and purified to homogeneity, eluting on a gel filtration column as a single homogeneous species (FIG. 5C).
Analytical ultracentrifugation (sedimentation velocity and sedimentation equilibrium) experiments were carried out using a Beckman XL-I analytical ultracentrifuge (Beckman Coulter) equipped with an eight-cell An-50 Ti rotor. The proteins were run in 20 mM sodium phosphate, pH 7.0, containing 200 mM NaCl supplemented with 0.5% C8E5, no density matching was necessary and the solvent density was calculated as 1.0075 g mL⁻¹. The partial specific volume of the protein was calculated by the program Sednterp™ (37). For sedimentation velocity, absorbance at 230 nm versus radial location was recorded during centrifugation at 50,000 rpm at 20° C. For sedimentation equilibrium, data were collected by UV detector at 20° C. for at least two protein concentrations at three rotor speeds. The data of sedimentation velocity and sedimentation equilibrium were analyzed using Sedfit™ and Sedphat™.

Row | Protein | binding result [1] | binding result [2]
1 | TMHC2 (transmembrane hairpin C2) (designed binder, De novo designed two-helix transmembrane hairpin, entered here as one protomer; It was expressed from pET-28b with an N-terminal hexa-histidine tag and a thrombin site) MTRTEIIRELERSLRLQLVLAIFLMALLIVLLWLQQNGSSNNNVNYLLIVILVLVLVIVALAVTQKYLVEQLKRQD | binds | 
2 | TMHC3 (designed binder, De novo designed hairpin, entered as one protomer; It self-associates into a homotrimer with six TM helices; also called designed transmembrane trimer TMHC3; not shown: C-terminal hexa-histidine tag from pET-29b (gene without stop codon, NdeI/XhoI)) MSEELRAVADLQRLNIELARKLLIAVALLQLLNILLVMLTSELTDEKTILWMIVIVMFLSLAIVIVALREIRRAKEESRKIADESR |  | binds
